Source: the supplement of paper PMC6757056
± gives the standard deviation of the averaged measurements.

B1: library; a variant is named by its letters at N, in order (parent)
chain: GCUGUCACCGGUGUAUUACCCUAGUGGUCGACCGGUCUGAUGAGUCUNNNNNNAGACGAAACAGC

What was measured:
hypoxanthine [1] = variants of: B1; test: normalized RNA/DNA level with ligand (relative to sTRSVctl = 100) (log10 (% of sTRSVctl)); ligand: hypoxanthine (xanthine aptamer); higher = less ribozyme self-cleavage, higher mRNA level; details: ligand concentration (+) RNA-Seq: 5 mM, HEK293T, reporter: mCherry (pCS4076), ligand present: yes
In short: (§1)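 Total RNA, extracted with EDTA 72 h after HEK293T cells were transfected with 4 µg per 6-well well of reporter-linked ribozyme switch library plasmids, was reverse-transcribed, amplified, barcoded and sequenced. Ligand, if used, was added 1 h before transfection. RNA level was derived from RNA reads divided by DNA reads and normalized to a spiked-in non-cleaving sequence or to the top sequences. This was multiplied by 100 and log10-transformed, with the top set of 25 sequences and a ≥100 DNA read minimum.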

hypoxanthine [2] = variants of: B1; test: normalized RNA/DNA level without ligand (relative to sTRSVctl = 100) (log10 (% of sTRSVctl)); ligand: hypoxanthine (xanthine aptamer); higher = less ribozyme self-cleavage, higher mRNA level; details: HEK293T, reporter: mCherry (pCS4076), ligand present: no
In short: as §1

Row | Variant | normalized RNA/DNA level with ligand (log10) (hypoxanthine [1]) | normalized RNA/DNA level without ligand (log10) (hypoxanthine [2])
1 | CGCGUG | 1.97 ± 0.068 | 1.73 ± 0.082
2 | CGCGUC | 1.97 ± 0.075 | 2.01 ± 0.061
3 | CGCGUU | 1.99 ± 0.054 | 1.905 ± 0.0075
4 | GGCACC | 1.92 ± 0.06 | 1.85 ± 0.021
5 | GGCACU | 2.011 ± 0.0022 | 1.99 ± 0.025
6 | GGCACG | 1.92 ± 0.022 | 1.66 ± 0.029
7 | CGCCGU | 1.986 ± 0.014 | 2 ± 0.043
8 | CGCCGA | 2.04 ± 0.052 | 1.89 ± 0.042
9 | CGCCGG | 1.913 ± 0.0023 | 1.61 ± 0.065
10 | CGCCGC | 1.97 ± 0.063 | 1.923 ± 0.0072
11 | CGCAGC | 1.96 ± 0.041 | 1.87 ± 0.025
12 | CGCAGA | 1.9 ± 0.029 | 1.81 ± 0.082
13 | CGCAGG | 1.82 ± 0.096 | 1.348 ± 0.011
14 | CGCAGU | 1.938 ± 0.0028 | 1.86 ± 0.026
15 | GGCAUU | 1.958 ± 0.0075 | 1.925 ± 0.0063
16 | GGCAUC | 1.97 ± 0.074 | 1.91 ± 0.057
17 | GGCAUA | 1.941 ± 0.0052 | 1.86 ± 0.032
18 | AGCAUC | 2.07 ± 0.038 | 1.96 ± 0.025
19 | GGCGAC | 1.93 ± 0.12 | 1.83 ± 0.021
20 | GGCGAA | 1.92 ± 0.037 | 1.801 ± 0.017

Row | Variant | normalized RNA/DNA level with ligand (log10) (hypoxanthine [1]) | normalized RNA/DNA level without ligand (log10) (hypoxanthine [2])
21 | GGCGAG | 1.82 ± 0.021 | 1.47 ± 0.087
22 | UGCCCC | 2.011 ± 0.0086 | 1.9 ± 0.024
23 | UGCCCG | 1.9 ± 0.037 | 1.831 ± 0.014
24 | UGCCCU | 2.003 ± 0.013 | 1.94 ± 0.028
25 | UGCGAG | 1.868 ± 0.0049 | 1.658 ± 0.009
26 | UGCGAC | 1.96 ± 0.0073 | 1.77 ± 0.028
27 | UGCGAA | 1.86 ± 0.021 | 1.724 ± 0.013
28 | UGCGAU | 1.933 ± 0.011 | 1.79 ± 0.081
29 | UGCACU | 1.94 ± 0.088 | 1.9 ± 0.0073
30 | UGCACG | 1.923 ± 0.014 | 1.76 ± 0.038
31 | UGCACC | 1.92 ± 0.057 | 1.93 ± 0.024
32 | CGCGGC | 1.99 ± 0.042 | 1.92 ± 0.034
33 | CGCGGU | 1.96 ± 0.025 | 1.87 ± 0.026
34 | CGCGGA | 2 ± 0.046 | 1.863 ± 0.0046
35 | AGCGCA | 1.94 ± 0.019 | 1.758 ± 0.0078
36 | AGCGCC | 1.93 ± 0.034 | 1.86 ± 0.04
37 | CGCAUA | 1.9 ± 0.052 | 1.69 ± 0.033
38 | CGCAUG | 1.93 ± 0.059 | 1.81 ± 0.057
39 | CGCAUU | 1.942 ± 0.0093 | 1.82 ± 0.036
40 | UGCCGC | 2.01 ± 0.032 | 1.927 ± 0.014

Row | Variant | normalized RNA/DNA level with ligand (log10) (hypoxanthine [1]) | normalized RNA/DNA level without ligand (log10) (hypoxanthine [2])
41 | UGCCGA | 1.94 ± 0.024 | 1.678 ± 0.014
42 | UGCCGU | 1.9 ± 0.027 | 1.74 ± 0.026
43 | AGCGGC | 1.959 ± 0.012 | 1.86 ± 0.042
44 | AGCGGU | 1.91 ± 0.024 | 1.55 ± 0.049
45 | UGCCUU | 1.939 ± 0.0041 | 1.9 ± 0.093
46 | AGCCCC | 1.963 ± 0.015 | 1.91 ± 0.089
47 | AGCCCU | 1.94 ± 0.03 | 1.932 ± 0.013
48 | CGCCCU | 2.077 ± 0.0049 | 1.952 ± 0.014
49 | CGCCCC | 1.971 ± 0.013 | 1.922 ± 0.0052
50 | CGCCCA | 1.96 ± 0.06 | 1.92 ± 0.041
51 | CGCCCG | 1.958 ± 0.0098 | 1.915 ± 0.005
52 | CGCGCU | 1.92 ± 0.076 | 1.93 ± 0.062
53 | CGCGCG | 1.9548 ± 0.00063 | 1.78 ± 0.035
54 | CGCGCA | 1.97 ± 0.063 | 1.81 ± 0.036
55 | GGCGCU | 1.973 ± 0.003 | 2.03 ± 0.022
56 | GGCGCG | 1.95 ± 0.028 | 1.81 ± 0.0088
57 | GGCGCC | 2.004 ± 0.0022 | 1.93 ± 0.024
58 | GGCCGA | 1.98 ± 0.038 | 1.854 ± 0.014
